# Laboratory results published in US20240124528.
# How the values were obtained:
# [1] = biological target: T1, IL-17RB ΔV403˜S416 (Del-3), HA-tagged
# T1 chain: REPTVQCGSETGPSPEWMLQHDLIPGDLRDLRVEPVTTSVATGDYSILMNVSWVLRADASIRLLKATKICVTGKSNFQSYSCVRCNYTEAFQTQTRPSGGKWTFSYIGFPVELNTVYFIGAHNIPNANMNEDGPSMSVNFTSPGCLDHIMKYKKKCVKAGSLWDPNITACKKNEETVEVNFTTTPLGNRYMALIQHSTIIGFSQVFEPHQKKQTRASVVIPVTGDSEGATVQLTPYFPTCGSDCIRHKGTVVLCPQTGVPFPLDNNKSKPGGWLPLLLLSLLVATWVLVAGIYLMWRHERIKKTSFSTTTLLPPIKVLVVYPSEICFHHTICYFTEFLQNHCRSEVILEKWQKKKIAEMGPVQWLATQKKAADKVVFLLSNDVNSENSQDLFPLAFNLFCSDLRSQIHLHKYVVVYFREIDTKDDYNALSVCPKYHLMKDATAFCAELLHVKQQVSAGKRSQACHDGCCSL
# [2] = biological target: T2, interleukin-17 receptor B (IL-17RB), human, endogenous in pancreatic cancer cells
# T2 chain: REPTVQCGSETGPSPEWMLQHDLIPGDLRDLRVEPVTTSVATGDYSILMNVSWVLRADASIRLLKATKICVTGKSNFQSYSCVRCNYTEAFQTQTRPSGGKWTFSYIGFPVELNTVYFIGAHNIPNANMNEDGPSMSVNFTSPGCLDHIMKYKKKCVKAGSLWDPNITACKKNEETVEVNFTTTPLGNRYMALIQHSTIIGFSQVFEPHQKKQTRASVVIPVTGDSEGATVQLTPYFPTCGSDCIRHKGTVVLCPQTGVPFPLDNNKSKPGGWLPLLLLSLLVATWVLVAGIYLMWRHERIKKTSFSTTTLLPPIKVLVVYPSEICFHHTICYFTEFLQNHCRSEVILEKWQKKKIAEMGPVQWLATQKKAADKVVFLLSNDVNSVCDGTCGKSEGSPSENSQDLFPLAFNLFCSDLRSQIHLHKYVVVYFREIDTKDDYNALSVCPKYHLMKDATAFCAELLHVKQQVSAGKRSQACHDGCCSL
# [3] = biological target: T3, IL-17RB-Flag (Flag-tagged IL-17RB, wild type)
# T3 chain: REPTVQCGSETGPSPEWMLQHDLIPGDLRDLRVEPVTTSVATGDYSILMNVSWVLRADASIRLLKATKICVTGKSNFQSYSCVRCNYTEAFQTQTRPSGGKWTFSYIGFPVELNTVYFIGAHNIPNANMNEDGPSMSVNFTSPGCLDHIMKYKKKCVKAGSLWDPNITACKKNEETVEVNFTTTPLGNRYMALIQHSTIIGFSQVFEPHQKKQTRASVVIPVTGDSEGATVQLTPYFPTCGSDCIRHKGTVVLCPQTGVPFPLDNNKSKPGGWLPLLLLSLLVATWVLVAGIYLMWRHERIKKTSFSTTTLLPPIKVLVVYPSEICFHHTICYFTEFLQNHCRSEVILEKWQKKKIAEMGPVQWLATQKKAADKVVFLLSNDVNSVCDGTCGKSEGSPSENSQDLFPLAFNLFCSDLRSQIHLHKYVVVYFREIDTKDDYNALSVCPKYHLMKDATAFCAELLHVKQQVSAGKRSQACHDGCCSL
Protein,"Y447 phosphorylation of IL-17RB (immunoblot with anti-P-Y447, FIG. 5D) [1]","IL-17RB phosphorylation at Y447 (immunoblot after MLK4 knockdown or knockout, FIG. 5A) [2]","in vitro ubiquitination assay with recombinant E1, E2 and ubiquitin (FIG. 18D) [3]"
"mixed-lineage kinase 4 (MLK4), endogenous (protein) MALRGAAGATDTPVSSAGGAPGGSASSSSTSSGGSASAGAGLWAALYDYEARGEDELSLRRGQLVEVLSQDAAVSGDEGWWAGQVQRRLGIFPANYVAPCRPAASPAPPPSRPSSPVHVAFERLELKELIGAGGFGQVYRATWQGQEVAVKAARQDPEQDAAAAAESVRREARLFAMLRHPNIIELRGVCLQQPHLCLVLEFARGGALNRALAAANAAPDPRAPGPRRARRIPPHVLVNWAVQIARGMLYLHEEAFVPILHRDLKSSNILLLEKIEHDDICNKTLKITDFGLAREWHRTTKMSTAGTYAWMAPEVIKSSLFSKGSDIWSYGVLLWELLTGEVPYRGIDGLAVAYGVAVNKLTLPIPSTCPEPFAKLMKECWQQDPHIRPSFALILEQLTAIEGAVMTEMPQESFHSMQDDWKLEIQQMFDELRTKEKELRSREEELTRAALQQKSQEELLKRREQQLAEREIDVLERELNILIFQLNQEKPKVKKRKGKFKRSRLKLKDGHRISLPSDFQHKITVQASPNLDKRRSLNSSSSSPPSSPTMMPRLRAIQLTSDESNKTWGRNTVFRQEEFEDVKRNFKKKGCTWGPNSIQMKDRTDCKERIRPLSDGNSPWSTILIKNQKTMPLASLFVDQPGSCEEPKLSPDGLEHRKPKQIKLPSQAYIDLPLGKDAQRENPAEAESWEEAASANAATVSIEMTPTNSLSRSPQRKKTESALYGCTVLLASVALGLDLRELHKAQAAEEPLPKEEKKKREGIFQRASKSRRSASPPTSLPSTCGEASSPPSLPLSSALGILSTPSFSTKCLLQMDSEDPLVDSAPVTCDSEMLTPDFCPTAPGSGREPALMPRLDTDCSVSRNLPSSFLQQTCGNVPYCASSKHRPSHHRRTMSDGNPTPTGATIISATGASALPLCPSPAPHSHLPREVSPKKHSTVHIVPQRRPASLRSRSDLPQAYPQTAVSQLAQTACVVGRPGPHPTQFLAAKERTKSHVPSLLDADVEGQSRDYTVPLCRMRSKTSRPSIYELEKEFLS",Del-3 failed to bind to MLK4 and phosphorylate Y447,either knockdown (left) or knockout (right) of MLK4 nearly completely abolished IL-17RB phosphorylation at Y447,–
"HA-TRIM56 (TRIM56-HA, HA-tagged tripartite-motif 56) (protein) MVSHGSSPSLLEALSSDFLACKICLEQLRAPKTLPCLHTYCQDCLAQLADGGRVRCPECRETVPVPPEGVASFKTNFFVNGLLDLVKARACGDLRAGKPACALCPLVGGTSTGGPATARCLDCADDLCQACADGHRCTRQTHTHRVVDLVGYRAGWYDEEARERQAAQCPQHPGEALRFLCQPCSQLLCRECRLDPHLDHPCLPLAEAVRARRPGLEGLLAGVDNNLVELEAARRVEKEALARLREQAARVGTQVEEAAEGVLRALLAQKQEVLGQLRAHVEAAEEAARERLAELEGREQVARAAAAFARRVLSLGREAEILSLEGAIAQRLRQLQGCPWAPGPAPCLLPQLELHPGLLDKNCHLLRLSFEEQQPQKDGGKDGAGTQGGEESQSRREDEPKTERQGGVQPQAGDGAQTPKEEKAQTTREEGAQTLEEDRAQTPHEDGGPQPHRGGRPNKKKKFKGRLKSISREPSPALGPNLDGSGLLPRPIFYCSFPTRMPGDKRSPRITGLCPFGPREILVADEQNRALKRFSLNGDYKGTVPVPEGCSPCSVAALQSAVAFSASARLYLINPNGEVQWRRALSLSQASHAVAALPSGDRVAVSVAGHVEVYNMEGSLATRFIPGGKASRGLRALVFLTTSPQGHFVGSDWQQNSVVICDGLGQVVGEYKGPGLHGCQPGSVSVDKKGYIFLTLREVNKVVILDPKGSLLGDFLTAYHGLEKPRVTTMVDGRYLVVSLSNGTIHIFRVRSPDS",–,–,purified TRIM56 could ubiquitinate IL-17RB at K470 in vitro
